# Experimental data: patent US12397036B2, “Peptide exchange protein” (Cambridge Enterprise Limited, priority 2018, dated 2025)
# B1: soluble TAPBPR^WT: secreted His-tagged luminal domain of human TAPBPR, lacking transmembrane domain and cytoplasmic tail; SEQ ID NO: 2 (protein)
# chain: KPHPAEGQWRAVDVVLDCFLVKDGAHRGALASSEDRARASLVLKQVPVLDDGSLEDFTDFQGGTLAQDDPPIIFEASVDLVQIPQAEALLHADCSGKEVTCEISRYFLQMTETTVKTAAWFMANVQVSGGGPSISLVMKTPRVAKNEVLWHPTLNLPLSPQGTVRTAVEFQVMTQTQSLSFLLGSSASLDCGFSMAPGLDLISVEWRLQHKGRGQLVYSWTAGQGQAVRKGATLEPAQLGMARDASLTLPGLTIQDEGTYICQITTSLYRAQQIIQLNIQASPKVRLSLANEALLPTLICDIAGYYPLDVVVTWTREELGGSPAQVSGASFSSLRQSVAGTYSISSSLTAEPGSAGATYTCQVTHISLEEPLGASTQVVPPERR
# modifications: His tag; TAPBPR luminal domain (mature sequence without 21 aa leader sequence)
# Tests used:
# surface MHC I molecules = target: T1, surface MHC I molecules (Homo sapiens, UniProt P04439, A269V/D140Y/D185E/E176V/E277Q/E87N/F33Y/G231S/I121R/I166T/I218V/L180W/L300P/L318F/N151K/P208A/P217A/Q86R/R138H/R169H/S129P/T345S/V36M); experiment: TAPBPR remaining on cell surface after peptide binding (PeTe4 staining); assay type: cell-based; conditions: 100 nM soluble TAPBPR^WT, then 10 nM peptide 15 min
# T1 construct: HLA-A68 (MHC class I) expressed on HeLa; endogenous in cells; host or cells: HeLaM and derivatives (TAPBPR-KO with or without TAPBPR/tapasin constructs, +Her2, Her2-KO, +PDL1, pD-GFP); in some arms HeLaM-HLA-ABC-KO re-expressing HLA-A*68:02
# Text: Subsequently, the amount of TAPBPR remaining on the cell surface was detected by staining with the TAPBPR specific mAb PeTe4.
# HLA-A*68:02 = target: T2, HLA-A*68:02 (Homo sapiens, UniProt P04439, A269V/D140Y/D185E/E176V/E277Q/E87N/F33Y/G231S/I121R/I166T/I218V/L180W/L300P/L318F/N151K/P208A/P217A/Q86R/R138H/R169H/S129P/T345S/V36M); experiment: Fluorescent peptide binding to HeLaM cells treated with exogenous soluble TAPBPR; assay type: cell-based
# T2 construct: HLA-A68 (MHC class I) expressed on HeLa; endogenous in cells; host or cells: HeLaM and derivatives (TAPBPR-KO with or without TAPBPR/tapasin constructs, +Her2, Her2-KO, +PDL1, pD-GFP); in some arms HeLaM-HLA-ABC-KO re-expressing HLA-A*68:02
# Protocol: (§1) Target cell lines were seeded at 25,000-30,000 cells/well in 12-well plates and stimulated with IFN-γ. Following the stimulation period, the cells were washed 3 times with 1×PBS and incubated with 300 μL pre-warmed opti-MEM (Thermo Fisher Scientific, UK). In case the peptide binding was done in the presence of recombinant TAPBPR, the cells were then treated with or without recombinant TAPBPR (100 nM for HLA-A*68:02 or 1 μM for HLA-A*02:01). After 15 min, the desired TAMRA-labelled peptide was added to the cells and incubated at 37° C. (15 min for HLA-A*68:02 or 60 min for HLA-A*02:01). In case the peptide binding was facilitated by over-expressed TAPBPR, the labelled peptide was directly added to the cells, without using recombinant TAPBPR. Following the peptide treatment, the cells were washed three times in 1×PBS and harvested. The level of bound peptide/cell was determined by flow cytometry, using the YelFL1 channel (Cytek).
# We next asked whether the exogenous TAPBPR bound to surface MHC class I molecules was capable of peptide exchange similarly to the membrane anchored version. Following incubation of cells for 15 min at 37° C. in the presence or absence of 100 nM exogenous TAPBPR, cells were treated with or without 10 nM fluorescent peptide for an additional 15 mins.
# [1] = target: surface GFP on HeLaM cells (Aequorea victoria, UniProt P42212, F64L/H231L/S65T)
# Protocol: (B) Histograms and (C) Bar graphs compare the binding of recombinant soluble TAPBPR (TAPBPR) with recombinant TAPBPR-fused to a nanobody specific for GFP (TAPBPR-GFPNB) to HeLaM cells (left) and HeLaM-pD-GFP cells (right). Histograms show the level of TAPBPR when the two cell lines were incubated with 100 nM protein while bar graphs summarise results using a range of concentrations of protein (0.001-100 nM). […] Each bar represents mean and standard deviation of three independent experiments.
# HLA-A*02:01 = target: T3, HLA-A*02:01 (Homo sapiens, UniProt P04439, D140Y/D185E/D98H/E176V/E277Q/G131W/G231S/I119V/I121R/I166T/I218V/L300P/L318F/N151K/N90K/P208A/P217A/Q86G/Q94H/R138H/R169H/T345S); assay type: cell-based; conditions: ETV* (HLA-A*68:02) and SRY* (HLA-B*27) controls
# T3 construct: expressed in transfected cells; host or cells: HeLaM-HLA-ABC-KO
# Protocol: (g) Dose response curves of IFN-γ treated HeLaM and HeLaM-HLA-ABC^KO cells treated −/+100 nM TAPBPR with increasing concentrations of ETVSK*QSNV for 15 min at 37° C. Line graphs show MFI−/+s.e.m from three independent experiments. […] (h) Histograms of the typical fluorescent peptide binding observed using flow cytometry. (i) Bar graphs showing the MFI of fluorescent peptide binding to HeLaM HLA-ABC^KO+A2−/+s.e.m from two independent experiments with duplicates. ***P≤0.001, ****P≤0.0001, n/s not significant, using unpaired two-tailed t-test.
# as §1, with “Following the peptide treatment, the cells were washed three times in 1×PBS and harvested.” left out
# Her2 = target: T4, Her2 (Homo sapiens, UniProt P04626); experiment: Binding of recombinant TAPBPR proteins to HeLaM, HeLaM+Her2 and HeLaM^Her2KO cells; conditions: 100 nM recombinant protein
# T4 construct: HeLaM cells which naturally express Her2; endogenous in cells; host or cells: HeLaM, HeLaM+Her2 (over-expressing), HeLaM-Her2-KO (negative control)
# Protocol: Histograms show the level of TAPBPR when the two cell lines were incubated with 100 nM protein while bar graphs summarise results using a range of concentrations of protein (0.001-100 nM). […] Each bar represents mean and standard deviation of three independent experiments.
# Each bar represents mean and standard deviation of three independent experiments.
# [2] = target: T5, HLA-A68 (MHC class I) expressed on HeLa (Homo sapiens, UniProt P04439, A269V/D140Y/D185E/E176V/E277Q/E87N/F33Y/G231S/I121R/I166T/I218V/L180W/L300P/L318F/N151K/P208A/P217A/Q86R/R138H/R169H/S129P/T345S/V36M); experiment: ETV* peptide loading on HeLaM and HeLaM-pD-GFP cells; assay type: cell-based; conditions: 1 nM recombinant protein
# T5 construct: HLA-A68 (MHC class I) expressed on HeLa; endogenous in cells; host or cells: HeLaM and derivatives (TAPBPR-KO with or without TAPBPR/tapasin constructs, +Her2, Her2-KO, +PDL1, pD-GFP); in some arms HeLaM-HLA-ABC-KO re-expressing HLA-A*68:02
molecule,measurement,setting,value
B1,dissociation of TAPBPR from cells after peptide binding,surface MHC I molecules,dissociate from cells upon high affinity peptide binding
same,binding of exogenous fluorescent peptides ETVSK*QSNV and YVVPKVAK*V to HeLaM,"HLA-A*68:02; 100 nM exogenous TAPBPR 15 min, then 10 nM peptide 15 min",significant enhancement in the binding of exogenous fluorescent peptides
same,exogenous peptide binding over increasing ETVSK*QSNV concentrations,"HLA-A*68:02; -/+100 nM TAPBPR, 15 min",enhanced exogenous peptide binding to cells over a wide range of peptide concentrations
same,binding to either of the HeLaM cell lines,[1]; 10 nM recombinant protein,did not exhibit any binding
same,binding to HeLaM cells (lacking GFP),[1]; 100 nM recombinant protein,bound at low levels
same,binding of peptides specific for other MHC class I molecules onto HLA-A2,HLA-A*02:01,did not promote the binding
same,binding to Her2-deficient HeLaM cells,Her2,still capable of binding
same,exogenous peptide loading onto antibody-target expressing cells at 1 nM protein,[2],no peptide loading
